Source: patent publication US20260139001A1 (Harvard, published 2026)

Biological target: RBD (Severe acute respiratory syndrome …, UniProt P59594)

B1: Wuhan-NS (VHH72 NoK V104K conjugated with NBD-x; V104NBDxK) (VHH)
VHH: QVQLQESGGGLVQAGGSLRLSCAASGRTFSEYAMGWFRQAPGREREFVATISWSGGSTYYTDSVRGRFTISRDNARNTVYLQMNSLRPDDTAVYYCAAAGLGTKVSEWDYDYDYWGQGTQVTVSS
EC50: 123 nM
